Test results from patent publication US20020106690A1 (published 2002).
Values joined by “and” are separate entries in the source; they are usually repeats but may differ in a detail not shown here. Equal entries are not always repeated.

T1: Ste4p, P18851
T1 chain: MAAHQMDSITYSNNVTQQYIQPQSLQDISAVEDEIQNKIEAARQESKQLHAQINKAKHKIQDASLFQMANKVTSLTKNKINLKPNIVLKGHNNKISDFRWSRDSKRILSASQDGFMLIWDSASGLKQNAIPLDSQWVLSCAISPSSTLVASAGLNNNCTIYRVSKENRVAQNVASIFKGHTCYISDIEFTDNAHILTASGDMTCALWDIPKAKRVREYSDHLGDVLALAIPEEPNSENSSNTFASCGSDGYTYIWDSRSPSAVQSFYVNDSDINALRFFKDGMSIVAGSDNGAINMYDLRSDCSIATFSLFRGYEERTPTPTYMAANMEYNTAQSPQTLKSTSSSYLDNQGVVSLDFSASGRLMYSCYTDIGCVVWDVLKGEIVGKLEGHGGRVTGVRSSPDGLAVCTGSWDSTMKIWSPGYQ

T2: HA-Ste4p (Saccharomyces cerevisiae (yeast), UniProt P18851 1-423)
T2 sequence (looked up): T1 chain

T3: GST-Ste20p FL (Saccharomyces cerevisiae (yeast), UniProt Q03497 1-939)
T3 construct: Purified on glutathione-Sepharose beads; also called GST fusion with full length Ste20p; not shown: glutathione S-transferase (GST), amino-terminal fusion partner
T3 sequence: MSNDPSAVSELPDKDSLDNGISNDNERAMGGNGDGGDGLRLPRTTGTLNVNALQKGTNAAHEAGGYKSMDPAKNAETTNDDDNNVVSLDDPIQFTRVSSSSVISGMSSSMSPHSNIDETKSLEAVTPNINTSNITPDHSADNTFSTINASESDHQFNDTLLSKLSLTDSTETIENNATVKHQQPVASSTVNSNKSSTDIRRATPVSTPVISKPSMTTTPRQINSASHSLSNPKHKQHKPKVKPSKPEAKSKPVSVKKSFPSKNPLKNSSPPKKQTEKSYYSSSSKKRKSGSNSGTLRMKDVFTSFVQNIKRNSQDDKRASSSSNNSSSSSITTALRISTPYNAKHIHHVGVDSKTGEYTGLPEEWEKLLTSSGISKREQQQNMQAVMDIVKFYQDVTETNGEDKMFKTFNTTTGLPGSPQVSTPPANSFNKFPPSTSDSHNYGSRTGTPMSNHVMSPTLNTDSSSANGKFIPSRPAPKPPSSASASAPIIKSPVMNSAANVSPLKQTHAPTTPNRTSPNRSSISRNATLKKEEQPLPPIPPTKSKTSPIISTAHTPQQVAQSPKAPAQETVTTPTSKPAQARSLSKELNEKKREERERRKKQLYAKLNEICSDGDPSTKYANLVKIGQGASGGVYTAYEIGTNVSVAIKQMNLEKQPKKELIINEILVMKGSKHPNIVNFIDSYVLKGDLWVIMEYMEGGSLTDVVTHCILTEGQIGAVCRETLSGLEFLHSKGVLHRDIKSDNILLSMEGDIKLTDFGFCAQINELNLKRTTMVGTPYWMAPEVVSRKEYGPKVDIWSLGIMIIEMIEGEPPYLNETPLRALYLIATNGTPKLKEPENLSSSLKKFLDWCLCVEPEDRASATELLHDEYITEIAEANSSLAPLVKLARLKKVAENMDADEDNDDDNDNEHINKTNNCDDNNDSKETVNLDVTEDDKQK

B1: Ste20p (enzyme)
chain: T3 sequence
notes: Full length Ste20p in yeast cells (endogenous, or from pDH166 / pSTE20-5); also called STE20^WT; wild-type Ste20p
B2: HA-Ste18p (other, Saccharomyces cerevisiae (yeast), UniProt P18852 1-110, looked up, not shown: small tags and cut ends)
chain: MTSVQNSPRLQQPQEQQQQQQQLSLKIKQLKLKRINELNNKLRKELSRERITASNACLTIINYTSNTKDYTLPELWGYPVAGSNHFIEGLKNAQKNSQMSNSNSVCCTLM
notes: In vitro-translated from pBTL65; also called in vitro-translated HA-Ste18p; γ-subunit of the mating response G-protein
B3: Ste20p^495-877 (enzyme)
chain: MNSAANVSPLKQTHAPTTPNRTSPNRSSISRNATLKKEEQPLPPIPPTKSKTSPIISTAHTPQQVAQSPKAPAQETVTTPTSKPAQARSLSKELNEKKREERERRKKQLYAKLNEICSDGDPSTKYANLVKIGQGASGGVYTAYEIGTNVSVAIKQMNLEKQPKKELIINEILVMKGSKHPNIVNFIDSYVLKGDLWVIMEYMEGGSLTDVVTHCILTEGQIGAVCRETLSGLEFLHSKGVLHRDIKSDNILLSMEGDIKLTDFGFCAQINELNLKRTTMVGTPYWMAPEVVSRKEYGPKVDIWSLGIMIIEMIEGEPPYLNETPLRALYLIATNGTPKLKEPENLSSSLKKFLDWCLCVEPEDRASATELLHDEYITEIAEA
notes: Overexpressed from the GAL1 promoter (pDH171) in cells deleted for STE20; also called STE20^495-877

Tests used:
[1] = molecular target: T1, Ste4p, P18851
[2] = molecular target: T2, HA-Ste4p; assay: co-immunoprecipitation from yeast extracts, densitometry of Western blots, against untreated cells
Experimental: (A) Time course of pheromone-induced Ste20p binding to HA-Ste4p. HA-Ste4p expressed from the STE4 promoter in cells deleted for STE4 was immunoprecipitated after treatment with […] a-factor. Relative amounts of Ste20p and HA-Ste4p were determined in Western blots (see example in upper and middle panels) and quantified densitometrically (mean values ±SD, n=3) (lower panel). (B) Association of Ste5p with HA-Ste4p expressed from the STE4 promoter in cells deleted for STE4 . HA-Ste4p immunoprecipitates from exponentially growing (−) and pheromone-treated (90 minutes) (+) yeast cells were analyzed with antibodies to Ste5p (upper panel) or HA-Ste4p (lower panel). (C) Overexpression of Ste4p leads to binding to Ste20p. HA-Ste4p was overexpressed from the GAL1 promoter in cells deleted for STE20 (lane 1) or STE4 (lanes 2 and 3). HA-Ste4p expression was suppressed in glucose-containing medium in cells deleted for STE4 (lane 4). Immunoprecipitates obtained with antibodies to Ste20p (lanes 1 and 2) or the HA-epitope (lanes 3 and 4) were analyzed for the presence of Ste20p (upper panel) and HA-Ste4p (lower panel). (D) Coimmunoprecipitation of HA-Ste4p and Ste20p truncation mutants. […] HA-Ste4p (lanes 1 and 2) and Ste20p (lanes 3 and 4) immunoprecipitates were analyzed for the presence of Ste20p (upper panel) and HA-Ste4p (lower panel) by Western blot analyses. […]

[3] = molecular target: T3, GST-Ste20p FL; assay: GST pull-down of in vitro-translated HA-Ste18p
[4] = molecular target: T2, HA-Ste4p; assay: co-immunoprecipitation from yeast extracts, Western blot

Binder	FUS1::lacZ expression [1]	FUS1::lacZ expression, Basal [1]	FUS1::lacZ expression, Induced [1]	G1 arrest [1]	Mating efficiencies (%) [1]	Shmoo formation [1]	fold increase in the interaction after pheromone treatment [2] [fold]	binding result [3]	binding result [4]
B1	274	0.1	221	+	72.7% and 89.8%	+	~5		
B2								no binding	
B3		< 0.1	< 0.1	-	0.02%	-			no binding
